The record followed here is patent US20150150950.

Data set [1] relates to GST-GSK3β T^390A mutant (kinase inactive, K^84A).
In data set [2] the test system is GST-GSK3β T^43A mutant (kinase inactive, K^84A).
Data set [3] relates to GST-GSK3β T^390A/T^43A double mutant (kinase inactive, K^84A).
Data set [4] deals with Recombinant kinase-active GSK3α.
Data set [5] relates to active GST-GSK3β-T^43A mutant.
For data set [6], the system named is GST-GSK3α (Cell Signaling, boiled to inactivate).
In data set [7] the test system is purified active wildtype GST-GSK3β.
For data set [8], the system named is inactive wildtype GST-GSK3β (K^84A kinase inactivating mutation).
Data set [9] has as its system active GST-GSK3β-T^390A mutant.

Chain of purified recombinant active p38 MAPK (Cell Signaling) (Q16539 2-360): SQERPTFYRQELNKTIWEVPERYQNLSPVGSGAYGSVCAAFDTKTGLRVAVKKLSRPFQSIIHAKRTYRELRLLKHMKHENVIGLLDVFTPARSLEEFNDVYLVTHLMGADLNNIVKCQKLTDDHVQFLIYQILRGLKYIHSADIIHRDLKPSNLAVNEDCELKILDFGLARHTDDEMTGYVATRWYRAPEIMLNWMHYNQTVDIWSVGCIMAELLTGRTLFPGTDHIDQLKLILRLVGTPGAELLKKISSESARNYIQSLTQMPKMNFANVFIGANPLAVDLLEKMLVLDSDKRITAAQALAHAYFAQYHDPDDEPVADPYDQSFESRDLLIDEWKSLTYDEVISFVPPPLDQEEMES
Chain of p38 MAPK in 293T cells (Q16539 2-360): as above
Chain of Recombinant kinase-active GSK3α (P49840 2-483): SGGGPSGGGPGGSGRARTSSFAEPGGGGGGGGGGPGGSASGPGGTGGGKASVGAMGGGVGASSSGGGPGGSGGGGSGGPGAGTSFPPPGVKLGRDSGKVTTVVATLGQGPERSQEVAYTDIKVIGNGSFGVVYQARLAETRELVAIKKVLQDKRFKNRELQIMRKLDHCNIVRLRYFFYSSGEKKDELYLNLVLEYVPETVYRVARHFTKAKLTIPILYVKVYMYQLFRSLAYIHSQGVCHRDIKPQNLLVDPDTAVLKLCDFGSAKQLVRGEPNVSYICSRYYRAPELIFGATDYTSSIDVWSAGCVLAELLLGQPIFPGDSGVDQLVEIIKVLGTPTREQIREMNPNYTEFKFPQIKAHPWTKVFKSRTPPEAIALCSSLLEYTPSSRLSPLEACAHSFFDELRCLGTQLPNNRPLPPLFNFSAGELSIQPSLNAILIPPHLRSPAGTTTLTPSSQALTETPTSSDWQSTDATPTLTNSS

For the substance recombinant active ERK (Cell Signaling), the “in vitro kinase assay (^32P incorporation)” value in [1] and in data set [2] was “The T^43A mutation but not the T^390A mutation abrogated phosphorylation of GSK3β by ERK” throughout.

Consider “purified recombinant active p38 MAPK (Cell Signaling)”, for which the “in vitro kinase assay (^32P incorporation)” value is reported as “phosphorylation of the GSK3β-T^43A/T^390A mutant was abrogated” in data set [3], “Phosphorylation of the GSK3β-T^390A mutant by p38 MAPK was partially reduced but not abrogated” in [1] and “p38 MAPK was still able to partially phosphorylate a GSK3β-T^43A mutant” in data set [2]. Moreover, the “GSK3α activity (in vitro kinase assay, GSM substrate peptide) after preincubation with p38 MAPK” value in data set [4] is given as “p38 MAPK did not affect the activity of GSK3α”. For the same substance, the “GSK3β activity (in vitro kinase assay, GSM substrate peptide) after preincubation with p38 MAPK” value in data set [5] was “p38 MAPK inhibited both wild-type GSK3β and GSK3β-T^43A mutant”; in [7] it was “p38 MAPK inhibited both wild-type GSK3β and GSK3β-T^43A mutant”. Also, in [6], the “in vitro kinase assay (^32P incorporation into GSK3α)” value is recorded as “GSK3α was not phosphorylated by recombinant p38 MAPK in vitro”. The “in vitro kinase assay (^32P incorporation into GSK3β)” value in data set [8] was “A purified recombinant activated p38 MAPK also phosphorylated GSK3β in vitro and this phosphorylation was blocked by SB203580”.

In the case of recombinant active Akt (Cell Signaling), the “GSK3β activity (in vitro kinase assay, GSM substrate peptide) after preincubation with Akt” value in [9] is “Akt inhibited wild-type GSK3β and the two mutants”; in [5] it was “Akt inhibited wild-type GSK3β and the two mutants”; in [7] it was “Akt inhibited wild-type GSK3β and the two mutants”.

On to p38 MAPK in 293T cells, for which the “in vitro p38 MAP kinase assay (^32P incorporation into GSK3β)” value in [8] is “p38 MAPK immunoprecipitated from MKK6 thymocytes or MKK6-transfected 293T cells phosphorylated recombinant catalytically-inactive GSK3β in vitro and this phosphorylation was blocked by the p38 MAPK inhibitor”.
